B1: ZRE3 mC1' (dsDNA)
DNA 1: GATCTATAGCATCGCGAATTTTGA
DNA 2: TCAAAATTCGCGATGCTATAGATC
modifications: single 5mC at the complement of G14 (position assigned from text)
B2: ZRE3 mC-2 (dsDNA)
DNA 1: GATCTATAGCATCGCGAATTTTGA
DNA 2: TCAAAATTCGCGATGCTATAGATC
modifications: single 5mC at C13 of strand 1 (position assigned from text)

Assays:
Zta [1] = biological target: T1, Zta (Epstein-Barr virus, UniProt P03206 1-245); experiment: competition; vs labelled ZIIIB; rank 1 of single-methyl sites; EMSA conditions not stated (cited to earlier papers); IVT proteins in rabbit reticulocyte lysate or wheat germ; competition with 6x-100x unlabelled DNA; conditions: protein: ivt; tags: [35S]Met-labelled in EMSA; chain copies: 2
Zta [2] = biological target: T1, Zta; experiment: competition; vs labelled ZIIIB; rank 2 of single-methyl sites; EMSA conditions not stated (cited to earlier papers); IVT proteins in rabbit reticulocyte lysate or wheat germ; competition with 6x-100x unlabelled DNA; conditions: protein: ivt; tags: [35S]Met-labelled in EMSA; chain copies: 2

T1 sequence (P03206 whole entry): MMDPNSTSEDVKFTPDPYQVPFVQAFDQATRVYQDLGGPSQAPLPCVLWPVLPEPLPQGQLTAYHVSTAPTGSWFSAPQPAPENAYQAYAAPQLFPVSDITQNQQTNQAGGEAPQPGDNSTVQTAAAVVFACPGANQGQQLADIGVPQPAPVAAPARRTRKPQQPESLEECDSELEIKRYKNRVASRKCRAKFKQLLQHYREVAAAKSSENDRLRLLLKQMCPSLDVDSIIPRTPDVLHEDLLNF

Binder | binding result (Zta [1]) | binding result (Zta [2])
B1 | binds | 
B2 |  | binds

— PMC2267006, “Methylated DNA Recognition during the Reversal of Epigenetic Silencing Is Regulated by Cysteine and Serine Residues in the Epstein-Barr Virus Lytic Switch Protein”
